Our source for the cell death of THP1 cells by FACS, RNase Fc mutant compared to wild type, fold decrease in cell death of THP1 cells (Annexin V binding and propidium iodide binding), RNase-Fc mutant compared to RNase-wild type Fc fusion protein and fold reduction in Fc receptor binding relative to RSLV-124 values is patent US20140044711A1.

Experiment [1] addresses Fc receptors on the surface of THP1 cells (Fc bearing human myeloid/monocytic cell line) (human). The experiment can be described thus: cell-based or functional assay.
Experiment [2] shares this target. The experiment can be described thus: FACS, mean fluorescence intensity of AF-647 labeled protein bound to THP1 cells. On the technique in general: Flow cytometry measures light scatter and fluorescence of single cells or particles in a stream.

A value given as a limit tells only on which side of the number the result lay.

In experiment [1], “RNase-Fc fusion protein with a mutant Fc (P238S, P331S) (mtRNasemgIgG)” displayed a cell death of THP1 cells by FACS, RNase Fc mutant compared to wild type of 3 to 5 fold; a fold decrease in cell death of THP1 cells (Annexin V binding and propidium iodide binding), RNase-Fc mutant compared to RNase-wild type Fc fusion protein of 3 fold. The substance “RSLV-132 (wthRNase-SCC-mthIgG1 P238S P331S) (Fc fusion)” came in with a fold reduction in Fc receptor binding relative to RSLV-124 in experiment [2] greater than 4 fold.
